Assay [1] deals with T1, Extracellular domain of TNFR1 with a GPI anchor domain (UniProt P19438 30-211).
T1 construct: extracellular domain; not shown: GPI anchor domain
T1 sequence (looked up): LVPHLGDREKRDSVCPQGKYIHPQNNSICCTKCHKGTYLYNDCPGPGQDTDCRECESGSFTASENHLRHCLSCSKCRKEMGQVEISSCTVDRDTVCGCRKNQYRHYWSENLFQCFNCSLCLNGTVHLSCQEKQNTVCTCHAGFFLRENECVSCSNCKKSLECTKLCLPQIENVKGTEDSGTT
Description: binding of the GpL tagged protein to HEK293 cells transiently transfected with the TNFR1 extracellular domain with GPI anchor; empty-vector cells as non-specific binding. The protocol:
(§1) HEK293 cells were transiently transfected with: (i) a TNFR2 expression plasmid; (ii) an expression plasmid encoding the extracellular domain of TNFR1 with a GPI anchor domain; or (iii) empty vector (ev). Next day, the indicated GpL tagged binding molecules were added at the indicated concentration to the cells. After incubation for 1 hour at 37° C., followed by two washes with PBS, the remaining cell bound GpL activity was determined.
(§2) An experiment was performed to illustrate the ability of the binding molecules provided to bind TNFR2, but not TNFR1. HEK293 cells were transiently transfected with: (i) a TNFR2 expression plasmid; (ii) an expression plasmid encoding the extracellular domain of TNFR1 with a GPI anchor domain; or (iii) empty vector (ev). […] The proteins indicated in FIG. 27 were added at the indicated concentration to the HEK293 cells. After incubation for 1 hour at 37° C., followed by two washes with PBS, the remaining cell bound GpL activity was determined.

Assay [2] addresses T2, Murine TNFR2 (mouse, UniProt P25119 23-474).
T2 construct: Expressed on transiently transfected HEK293 cells; also called mouse TNFR2; TNFR2(mu)
T2 sequence: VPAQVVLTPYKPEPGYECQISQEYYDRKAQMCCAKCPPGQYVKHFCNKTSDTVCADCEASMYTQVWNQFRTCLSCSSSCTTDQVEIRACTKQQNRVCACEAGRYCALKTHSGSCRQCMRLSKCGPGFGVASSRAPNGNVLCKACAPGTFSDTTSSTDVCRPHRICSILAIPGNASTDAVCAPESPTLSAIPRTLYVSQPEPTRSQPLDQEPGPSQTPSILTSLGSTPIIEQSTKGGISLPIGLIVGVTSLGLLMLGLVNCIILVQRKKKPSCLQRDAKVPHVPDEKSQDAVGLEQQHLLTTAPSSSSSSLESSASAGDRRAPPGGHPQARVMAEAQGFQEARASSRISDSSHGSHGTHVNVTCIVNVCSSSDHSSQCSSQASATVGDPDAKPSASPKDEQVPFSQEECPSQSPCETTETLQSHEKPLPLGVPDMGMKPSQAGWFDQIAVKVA
Description: equilibrium binding of the GpL fusion protein (label C27-IgG1-LC:GpL) to HEK293 cells transiently transfected with murine TNFR2; empty-vector cells as non-specific binding. The protocol: (§3) FIG. 14—Binding of TNFR2-specific antibodies to human, murine and cynomolgus TNFR2. HEK293 cells were transiently transfected with human, murine and cynomologus TNFR2 or empty vector. Equilibrium binding of the indicated anti-TNFR2 antibody GpL fusion proteins were then determined at 37° C. Binding to empty vector transfected cells was determined to obtain unspecific binding values.
(§4) Affinity (KD-values) of TNFR2-targeting antibodies to human, cynomolgus monkey, and murine TNFR2 was evaluated by cellular equilibrium binding studies. Therefore, HEK293T cells were transiently transfected with human, cynomolgus or mouse TNFR2 encoding expression plasmids or an empty vector control (EV) using the PEI method. […] Cell associated luciferase activity (RLU; relative light units) was detected with LUmo luminometer (anthos Mikrosysteme GmbH, Friesoythe, Germany) directly after adding 1.5 μM of the substrate coelenterazin (Carl Roth, Karlsruhe, Germany).
(§5) The binding properties of anti-TNFR2 antibodies from different clones were assessed. […] Equilibrium binding of the indicated anti-TNFR2 antibody GpL fusion proteins was then determined at 37° C. Binding to empty vector transfected cells was determined to obtain unspecific binding values.

The target of assay [3] is T3, Human TNFR2 (human, UniProt P20333 23-461).
T3 construct: On cells: HeLa-TNFR2, HT1080-Bcl2-TNFR2, transiently transfected HEK293; endogenous on Kym-1 cells; also called huTNFR2; TNFRSF1B
T3 sequence: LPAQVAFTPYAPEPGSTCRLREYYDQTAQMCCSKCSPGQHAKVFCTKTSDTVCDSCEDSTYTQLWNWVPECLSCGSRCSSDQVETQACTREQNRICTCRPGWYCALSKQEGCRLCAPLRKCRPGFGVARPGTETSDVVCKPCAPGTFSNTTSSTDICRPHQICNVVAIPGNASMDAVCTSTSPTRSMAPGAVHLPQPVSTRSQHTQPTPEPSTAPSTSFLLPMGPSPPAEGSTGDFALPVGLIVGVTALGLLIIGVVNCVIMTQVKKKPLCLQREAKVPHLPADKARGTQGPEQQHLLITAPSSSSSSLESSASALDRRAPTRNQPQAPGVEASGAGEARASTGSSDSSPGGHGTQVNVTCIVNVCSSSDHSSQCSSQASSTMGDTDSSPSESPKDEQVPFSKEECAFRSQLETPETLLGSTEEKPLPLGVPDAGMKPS
The assay can be described thus: equilibrium binding of the GpL fusion protein to HeLa-TNFR2 cells, 37 °C; unspecific binding on HeLa cells subtracted; cell-bound luciferase. The protocol: FIG. 11—Binding properties of TNFR2-specific antibodies. (A) Equilibrium binding of the indicated anti-TNFR2 antibody GpL fusion proteins to cell expressed human TNFR2 at 37° C. (B) HeLa-TNFR2 cells were pretreated with the indicated amounts of anti-TNFR2 antibodies or remained untreated. […] Binding of the various constructs to untransfected HeLa cells was analyzed to obtain unspecific binding values.
Affinity of TNFR2-specific antibodies and antibody variants were also evaluated with HeLa cells and HeLa cells stably expressing human TNFR2. HeLa and HeLa-TNFR2 cells were seeded out in 24-well plates. Next day, the cells were challenged with the indicated concentrations of GpL-labelled TNFR2 antibodies for 1 hour at 37° C. To eliminate the unbound antibodies, the cells were washed 10 times with ice-cold PBS. The cells were then scratched and collected in 50 μl of medium (RPMI, 0.5% FCS) and transferred to black 96-well plates for measurement as mentioned above. The specific binding of different TNFR2-specific antibodies/antibody variants was calculated by subtracting the unspecific binding (values obtained from HeLa cells) from total binding (obtained from HeLa-TNFR2). The resulting values were fitted using the non-linear regression analysis option of GraphPad Prism 5.

The target of assay [4] is T2, Murine TNFR2. Description: equilibrium binding of the GpL fusion protein (label C9-IgG1-LC:GpL) to HEK293 cells transiently transfected with murine TNFR2; empty-vector cells as non-specific binding. Here is the method: as §3, §4, §5
Another assay has as its target T4, Cynomolgus TNFR2 (Macaca fascicularis (cynomolgus monkey), UniProt P20333 26-461 (human entry)).
T4 construct: Expressed on transiently transfected HEK293 cells; also called TNFR2-cyno; monkey TNFR2
T4 chain: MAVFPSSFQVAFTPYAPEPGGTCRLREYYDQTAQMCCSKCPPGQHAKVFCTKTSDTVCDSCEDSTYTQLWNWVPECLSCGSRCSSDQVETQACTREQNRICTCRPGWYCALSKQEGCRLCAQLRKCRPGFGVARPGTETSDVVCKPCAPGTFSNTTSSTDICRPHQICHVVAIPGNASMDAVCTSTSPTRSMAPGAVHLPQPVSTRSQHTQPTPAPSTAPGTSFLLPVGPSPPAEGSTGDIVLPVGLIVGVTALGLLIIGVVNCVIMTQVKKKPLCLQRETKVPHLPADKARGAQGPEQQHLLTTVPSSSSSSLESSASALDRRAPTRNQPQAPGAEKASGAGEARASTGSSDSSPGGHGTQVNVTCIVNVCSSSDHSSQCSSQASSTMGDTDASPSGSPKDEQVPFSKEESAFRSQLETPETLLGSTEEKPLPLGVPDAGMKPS
Description: equilibrium binding of the GpL fusion protein to HEK293 cells transiently transfected with cynomolgus TNFR2, 37 °C; empty-vector cells as non-specific binding. Here is the method: as §3, §4, §5

The target in assay [5] is T3, Human TNFR2. Description: binding of the GpL tagged protein to HEK293 cells transiently transfected with TNFR2, 1 h 37 °C; empty-vector cells as non-specific binding. The protocol: as §1, §2

This is an account of results in patent US20240190983A1 (JULIUS MAXIMILIANS UNIVERSIT T W RZBURG, published 2024).

B1: C27-IgG1(N297A)-LC:GpL (antibody)
light: EVKLVPRQLDYKDDDDKELNIVMTQSPKSLSMSVGERVTLNCKASENVKTYVSWYQQKPEQSPKLLIYGASNRYTGVPDRFTGSGSATDFTLTISSVQAEDLADYHCGQSYSYPFTFGAGTKLERKGSEIKRTVAAPSVFIFPPSDEQLKSGTASVVCLLNNFYPREAKVQWKVDNALQSGNSQESVTEQDSKDSTYSLSSTLTLSKADYEKHKVYACEVTHQGLSSPVTKSFNRGECLEKPTENNEDFNIVAVASNFATTDLDADRGKLPGKKLPLEVLKEMEANARKAGCTRGCLICLSHIKCTPKMKKFIPGRCHTYEGDKESAQGGIGEAIVDIPEIPGFKDLEPMEQFIAQVDLCVDCTTGCLKGLANVQCSDLLKKWLPQRCATFASKIQGQVDKIKGAGGD
heavy: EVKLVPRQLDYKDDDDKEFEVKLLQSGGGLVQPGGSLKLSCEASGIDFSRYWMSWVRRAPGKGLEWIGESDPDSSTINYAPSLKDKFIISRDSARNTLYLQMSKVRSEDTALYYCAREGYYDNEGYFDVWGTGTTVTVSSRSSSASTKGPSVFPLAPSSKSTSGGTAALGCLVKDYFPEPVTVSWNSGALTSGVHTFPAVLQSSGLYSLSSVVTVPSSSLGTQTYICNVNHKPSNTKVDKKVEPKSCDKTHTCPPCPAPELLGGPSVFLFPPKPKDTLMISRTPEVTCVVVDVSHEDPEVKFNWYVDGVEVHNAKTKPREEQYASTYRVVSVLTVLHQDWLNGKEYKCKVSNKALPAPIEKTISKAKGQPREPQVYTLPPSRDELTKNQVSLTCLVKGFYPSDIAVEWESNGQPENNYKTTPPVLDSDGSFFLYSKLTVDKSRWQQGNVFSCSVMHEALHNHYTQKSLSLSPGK
notes: copies: 2 + 2
For the molecule B1, the binding result was “no binding (tested: 750 ng/ml)” in assay [1] and “no binding (tested: 1000 ng/ml)” with Murine TNFR2 [2].

B2: C9-IgG1(N297A)-LC:GpL (antibody)
light: EVKLVPRQLDYKDDDDKELQIVLTQSPAIMSASPGEKVTITCSASSSVSYMHWFQQKPGTSPKLWIYSTSNLASGVPARFSGSGSGTSYSLTISRMEAEDAATYYCQQRSSYPPTFGGGTKLEIKGSEIKRTVAAPSVFIFPPSDEQLKSGTASVVCLLNNFYPREAKVQWKVDNALQSGNSQESVTEQDSKDSTYSLSSTLTLSKADYEKHKVYACEVTHQGLSSPVTKSFNRGECLEKPTENNEDFNIVAVASNFATTDLDADRGKLPGKKLPLEVLKEMEANARKAGCTRGCLICLSHIKCTPKMKKFIPGRCHTYEGDKESAQGGIGEAIVDIPEIPGFKDLEPMEQFIAQVDLCVDCTTGCLKGLANVQCSDLLKKWLPQRCATFASKIQGQVDKIKGAGGD
heavy: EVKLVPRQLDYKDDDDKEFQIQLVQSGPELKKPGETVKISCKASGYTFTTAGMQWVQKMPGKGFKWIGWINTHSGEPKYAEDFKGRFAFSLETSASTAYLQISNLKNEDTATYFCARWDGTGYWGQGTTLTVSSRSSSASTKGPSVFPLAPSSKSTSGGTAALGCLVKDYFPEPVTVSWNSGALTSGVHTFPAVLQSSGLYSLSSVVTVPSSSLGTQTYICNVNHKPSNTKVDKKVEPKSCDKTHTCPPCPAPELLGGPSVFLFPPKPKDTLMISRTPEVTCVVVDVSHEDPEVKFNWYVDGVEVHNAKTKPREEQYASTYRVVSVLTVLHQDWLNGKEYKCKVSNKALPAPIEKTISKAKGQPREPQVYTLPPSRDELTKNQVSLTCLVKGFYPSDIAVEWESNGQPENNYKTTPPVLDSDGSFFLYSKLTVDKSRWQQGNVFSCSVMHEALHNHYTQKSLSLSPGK
notes: copies: 2 + 2
B2 gave a Bmax with Human TNFR2 [3] of 1000 kRLU. Besides, the Kd (commonly the equilibrium constant for the complex coming apart) came to 0.22 µg/mL with Human TNFR2 [3], 1.1 µg/mL in the assay with Cynomolgus TNFR2 and 0.13 µg/mL in the assay with Human TNFR2 [5]. The binding result in assay [1] is on record as “no binding (tested: 750 ng/ml)”; with Murine TNFR2 [4] it was “no binding (tested: 1500 ng/ml)”.
